Values quoted from earlier work, collected in article PMC7585440.

Tests used:
[1] = target: LRP6 E1 (Homo sapiens) (UniProt O75581); experiment: ITC
[2] = target: LRP6 E1E2 (Homo sapiens) (UniProt O75581); experiment: biolayer interferometry
Sequence of LRP6 E1E2 (Homo sapiens) (O75581 20-630): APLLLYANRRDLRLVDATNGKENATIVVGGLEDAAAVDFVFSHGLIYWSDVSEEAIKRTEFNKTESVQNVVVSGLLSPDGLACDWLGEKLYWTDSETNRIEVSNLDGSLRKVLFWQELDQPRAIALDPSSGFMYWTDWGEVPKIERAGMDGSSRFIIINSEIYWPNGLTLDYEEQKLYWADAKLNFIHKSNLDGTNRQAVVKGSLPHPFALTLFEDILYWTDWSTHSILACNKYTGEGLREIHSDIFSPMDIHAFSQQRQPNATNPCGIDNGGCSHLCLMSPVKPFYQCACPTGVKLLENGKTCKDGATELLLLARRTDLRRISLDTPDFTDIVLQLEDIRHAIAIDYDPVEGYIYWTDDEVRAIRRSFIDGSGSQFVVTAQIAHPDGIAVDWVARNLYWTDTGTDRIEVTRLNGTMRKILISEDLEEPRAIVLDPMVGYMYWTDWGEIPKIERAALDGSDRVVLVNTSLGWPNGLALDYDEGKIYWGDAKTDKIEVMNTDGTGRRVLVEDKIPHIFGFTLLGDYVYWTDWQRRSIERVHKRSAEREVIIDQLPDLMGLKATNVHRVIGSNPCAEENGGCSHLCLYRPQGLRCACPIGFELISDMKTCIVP

Sequence of SOST loop 2 peptide loop 2 (Q9BQB4 110-130): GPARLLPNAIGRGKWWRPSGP
Sequence of LRP6 E1 (Homo sapiens) (O75581 20-326): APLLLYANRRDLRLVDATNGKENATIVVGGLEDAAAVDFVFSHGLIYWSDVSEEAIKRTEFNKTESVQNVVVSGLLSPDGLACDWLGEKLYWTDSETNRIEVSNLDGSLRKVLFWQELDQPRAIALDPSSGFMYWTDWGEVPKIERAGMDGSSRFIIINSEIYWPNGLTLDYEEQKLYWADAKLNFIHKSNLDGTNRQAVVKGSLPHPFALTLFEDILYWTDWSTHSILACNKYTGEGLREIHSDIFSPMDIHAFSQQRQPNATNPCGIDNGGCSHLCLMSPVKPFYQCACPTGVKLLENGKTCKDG
Sequence of SOST (Q9BQB4 24-213): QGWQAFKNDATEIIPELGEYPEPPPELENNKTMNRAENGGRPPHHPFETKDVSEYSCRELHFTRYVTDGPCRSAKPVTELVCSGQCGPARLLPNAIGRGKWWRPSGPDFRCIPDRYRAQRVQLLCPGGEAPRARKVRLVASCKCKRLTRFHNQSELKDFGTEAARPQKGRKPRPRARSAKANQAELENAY

| Substance | Kd [1] [µM] | Kd [2] [µM] |
| --- | --- | --- |
| SOST loop 2 peptide loop 2 (from UniProt Q9BQB4) | 9 |  |
| SOST (from UniProt Q9BQB4) |  | 0.0068 |
